{"source": "paper PMC10169808", "about": "“Two legume fatty acid amide hydrolase isoforms with distinct preferences for microbial- and plant-derived acylamides” (Scientific Reports, 2023)", "molecules": {"B1": {"name": "MtFAAH2a (Medicago truncatula) (protein)", "chain": "MGLFKSKRVVYKPVKDVNLGPDSTEFYLQANVKAPRMTGILVKIVAWLLECRIIGAFLLYILKGNNLIHKYITNADIEEPPLYVPLHHFEDHKEQEVKSLDLALTPPDKVQVAIDCLPTTLQRPINGTKPSFNRWTIMDYFRAYSSGDITPHMVAERFIAAVDESSKPTLQMGFFINYNVEDILRQANESTLRYQKGEPISVLDGVPVAIKDEIDCLPYPTTGGTKWLHKQRPCTDDACCIKRLRLCGAVLVGKTNMHELGAGTSGINPHYGATRNPHNASRIAGGSSSGSAAVVSAGLCPVALGVDGGGSVRMPAALCGIVGLKPTFSRIPHSGVIPLNWTVGMVGILAGTVEDSLITYAAISGEIPSRQPSSIPAKINLPLLPLTKSISKIKLAKYGKWFDDCSDDVRICCSGALNKLQGHYGWKIVDVTIPEIEVMRLAHYSTIGSECNTSLDYFQDKNLADFGWDARVALKIYGSFSSMEYIKAQKIRNRQLQFHKKIFSEADIIVSPTTGVTAYPIQDDALKTGELDYVNGAALIRYSIAGNFLGLPAVTVPVGYDKLGLPIGLQFIGRPWAEATLIHLAFAMQTICLSEYRKPAIFYDLLRTN", "notes": "full-length synthesized CDS (GENEWIZ) subcloned in pTrcHIS2, C-terminal c-myc and 6xHis tags, E. coli; estimated homotetramer in DDM; catalytic Ser311"}, "B2": {"name": "MtFAAH1 (Medicago truncatula) (protein)", "chain": "MGKKRVMVPAKDVDLSSIKYEPEIVQAPHLTGFWFRFFVRLIEAPLIGPFLLTMLKKENKIDQLLRNTVFPEEPMFKPEYPPQEKEHSVVELDEDGRPEGRVESALNCLPHYDPAKLWENSSATFRYWKIRDYAYAYQSRKVTPSMVAESIISMIEENGIDKPPTPLLLSFDAAEVRKQAAASTQRFESGNPLSILDGIFIAIKDDIDCHPHPSTGGSTWMHEVRDVKKDAVCVSRLRSCGVIFIGKTNMHEFGMGTTGNNSNYGTARNPHAPDRYTGGSSSGPAAIVASGLCSAALGTDGGGSVRIPSSLCGVVGLKINYGRTSMEGSLCDSGTVEVIGPIASTVEDAMLVYAAMLGASPANRISMKPSTPCLPTLSSDDDTDALRSLRIGIYTPWFNNVHSTEVSDKCEDALNLLSKAHGCEVVEVVIPEIVEMRTAHLVSIGSECLSSLNPDIEDGKGVKLSYDTRTSLALFQSFTAADYVAAQCIRRRIMHYFMEIFKKVDVIVTPTTGMTAPRIPPSALKSGETDMPTTGYLMRFVVPANLLGLPAISVPVGYDKEGLPIGLQVIGRPWAEATILRVAAAVEKLCGESKRRPVTYYDVLGAN", "notes": "full-length CDS from A17 stem cDNA; C-terminal c-myc and 6xHis tags (pTrcHIS2), E. coli BL21(DE3); estimated homotetramer in DDM; catalytic Ser304"}, "B3": {"name": "Arabidopsis thaliana fatty acid amide hydrolase (AtFAAH) (enzyme)", "chain": "MGKYQVMKRASEVDLSTVKYKAETMKAPHLTGLSFKLFVNLLEAPLIGSLIVDYLKKDNGMTKIFRNTVIPEEPMFRPEFPSQEPEHDVVIVGEDESPIDRLETALKCLPQYDPSRSLHADPVSSFRYWKIRDYAYAYRSKLTTPLQVAKRIISIIEEFGYDKPPTPFLIRFDANEVIKQAEASTRRFEQGNPISVLDGIFVTIKDDIDCLPHPTNGGTTWLHEDRSVEKDSAVVSKLRSCGAILLGKANMHELGMGTTGNNSNYGTTRNPHDPKRYTGGSSSGSAAIVAAGLCSAALGTDGGGSVRIPSALCGITGLKTTYGRTDMTGSLCEGGTVEIIGPLASSLEDAFLVYAAILGSSSADRYNLKPSPPCFPKLLSHNGSNAIGSLRLGKYTKWFNDVSSSDISDKCEDILKLLSNNHGCKVVEIVVPELEEMRAAHVISIGSPTLSSLTPYCEAGKNSKLSYDTRTSFAIFRSFSASDYIAAQCLRRRLMEYHLNIFKDVDVIVTPTTGMTAPVIPPDALKNGETNIQVTTDLMRFVLAANLLGFPAISVPVGYDKEGLPIGLQIMGRPWAEATVLGLAAAVEELAPVTKKPAIFYDILNTN", "notes": "AtFAAH, fatty acid amide hydrolase (a FAAH1 enzyme), Arabidopsis thaliana; also called A. thaliana FAAH; AtFAAH1; source: recombinant, purified"}}, "key": {"[1]": {"biological_target": "Medicago truncatula fatty acid amide hydrolase 1 (MtFAAH1) (Medicago truncatula)", "assay": "SEC; Superdex 200 Increase 10/300 GL; 50 mM Bis-Tris-Propane pH 9.0, 100 mM NaCl, 0.03% DDM; mass interpolated from Kav against standards, mean elution volume of six purifications, DDM micelle (about 70 kDa) taken into account"}, "[2]": {"biological_target": "Medicago truncatula fatty acid amide hydrolase 2a (MtFAAH2a) (Medicago truncatula)", "assay": "SEC; Superdex 200 Increase 10/300 GL; buffers at pH 7.5, 0.06% DDM; mass interpolated from Kav against standards, mean elution volume of six purifications, DDM micelle (about 70 kDa) taken into account"}, "[3]": {"substrate": "C/C=C/C=C\\CC/C=C/C(=O)NCC(C)C", "assay": "fluorescamine assay of released amine, Michaelis-Menten fit", "assay_type": "biochemical, Medicago truncatula", "conditions": "100 mM NaCl, 30 °C, apparent"}, "[4]": {"substrate": "CCCCC/C=C\\C/C=C\\CCCCCCCC(=O)NCCO", "assay": "fluorescamine assay of released amine, Michaelis-Menten fit", "assay_type": "biochemical, Medicago truncatula", "conditions": "100 mM NaCl, 30 °C, apparent"}, "[5]": {"substrate": "CCCCC/C=C\\C=C\\C(O)CCCCCCCC(=O)NCCO", "assay": "fluorescamine assay of released amine, Michaelis-Menten fit", "assay_type": "biochemical, Medicago truncatula", "conditions": "100 mM NaCl, 30 °C, apparent"}, "[6]": {"substrate": "CCCCCCCCCC(=O)CC(=O)N[C@H]1CCOC1=O", "assay": "fluorescamine assay of released amine, Michaelis-Menten fit", "assay_type": "biochemical, Medicago truncatula", "conditions": "100 mM NaCl, 30 °C, apparent"}, "[7]": {"substrate": "CCCCCCCCCCCC(=O)CC(=O)N[C@H]1CCOC1=O", "assay": "fluorescamine assay of released amine, Michaelis-Menten fit", "assay_type": "biochemical, Medicago truncatula", "conditions": "100 mM NaCl, 30 °C, apparent"}, "[8]": {"substrate": "CCCCCCCCCCCC(=O)NCCO", "assay": "fluorescamine assay of released amine, Michaelis-Menten fit", "assay_type": "biochemical, Medicago truncatula", "conditions": "100 mM NaCl, 30 °C, apparent"}, "[9]": {"substrate": "O=C(/C=C/c1ccc(O)cc1)NCCc1ccc(O)cc1", "assay": "fluorescamine assay of released amine, Michaelis-Menten fit", "assay_type": "biochemical, Medicago truncatula", "conditions": "100 mM NaCl, 30 °C, apparent"}, "[10]": {"substrate": "O=C(/C=C/c1ccc(O)cc1)N[C@H]1CCOC1=O", "assay": "fluorescamine assay of released amine, Michaelis-Menten fit", "assay_type": "biochemical, Medicago truncatula", "conditions": "100 mM NaCl, 30 °C, apparent"}, "[11]": {"biological_target": "the molecule itself", "assay": "SEC; AtFAAH run as reference for the MtFAAH calculations, in solution with detergent; its conditions are not told in the text (Supplementary Fig. S13)"}}}
{"molecule": "Medicago truncatula fatty acid amide hydrolase 1 (MtFAAH1) (enzyme)", "values": [{"measurement": "stoichiometry N", "setting": "[1]", "value": 4}]}
{"molecule": "Medicago truncatula fatty acid amide hydrolase 2a (MtFAAH2a) (enzyme)", "values": [{"measurement": "stoichiometry N", "setting": "[2]", "value": 4}]}
{"molecule": "B1", "values": [{"measurement": "Km", "setting": "[3]; pH 7.5, 25 mM HEPES, 0.06% DDM", "value": "7.64 ± 1.5", "unit": "µM"}, {"measurement": "kcat", "setting": "[3]; pH 7.5, 25 mM HEPES, 0.06% DDM", "value": 1.28, "unit": "s⁻¹"}, {"measurement": "Km", "setting": "[4]; pH 7.5, 25 mM HEPES, 0.06% DDM", "value": "15.1 ± 2.9", "unit": "µM"}, {"measurement": "kcat", "setting": "[4]; pH 7.5, 25 mM HEPES, 0.06% DDM", "value": 0.60, "unit": "s⁻¹"}, {"measurement": "Km", "setting": "[5]; pH 7.5, 25 mM HEPES, 0.06% DDM", "value": "18.7 ± 2.9", "unit": "µM"}, {"measurement": "kcat", "setting": "[5]; pH 7.5, 25 mM HEPES, 0.06% DDM", "value": 0.35, "unit": "s⁻¹"}, {"measurement": "Km", "setting": "[6]; pH 7.5, 25 mM HEPES, 0.06% DDM", "value": "13.2 ± 2.1", "unit": "µM"}, {"measurement": "kcat", "setting": "[6]; pH 7.5, 25 mM HEPES, 0.06% DDM", "value": 1.11, "unit": "s⁻¹"}, {"measurement": "Km", "setting": "[7]; pH 7.5, 25 mM HEPES, 0.06% DDM", "value": "14.6 ± 1.7", "unit": "µM"}, {"measurement": "kcat", "setting": "[7]; pH 7.5, 25 mM HEPES, 0.06% DDM", "value": 0.96, "unit": "s⁻¹"}, {"measurement": "Km", "setting": "[8]; pH 7.5, 25 mM HEPES, 0.06% DDM", "value": "13.8 ± 1.7", "unit": "µM"}, {"measurement": "kcat", "setting": "[8]; pH 7.5, 25 mM HEPES, 0.06% DDM", "value": 1.26, "unit": "s⁻¹"}, {"measurement": "Km", "setting": "[9]; pH 7.5, 25 mM HEPES, 0.06% DDM", "value": "10.8 ± 1.1", "unit": "µM"}, {"measurement": "kcat", "setting": "[9]; pH 7.5, 25 mM HEPES, 0.06% DDM", "value": 1.51, "unit": "s⁻¹"}, {"measurement": "Km", "setting": "[10]; pH 7.5, 25 mM HEPES, 0.06% DDM", "value": "13.8 ± 1.9", "unit": "µM"}, {"measurement": "kcat", "setting": "[10]; pH 7.5, 25 mM HEPES, 0.06% DDM", "value": 1.64, "unit": "s⁻¹"}]}
{"molecule": "B2", "values": [{"measurement": "Km", "setting": "[3]; pH 9, 25 mM HEPES, 0.03% DDM", "value": "6.81 ± 2.6", "unit": "µM"}, {"measurement": "kcat", "setting": "[3]; pH 9, 25 mM HEPES, 0.03% DDM", "value": 0.32, "unit": "s⁻¹"}, {"measurement": "Km", "setting": "[4]; pH 9, 25 mM HEPES, 0.03% DDM", "value": "4.83 ± 0.6", "unit": "µM"}, {"measurement": "kcat", "setting": "[4]; pH 9, 25 mM HEPES, 0.03% DDM", "value": 1.05, "unit": "s⁻¹"}, {"measurement": "Km", "setting": "[5]; pH 9, 25 mM HEPES, 0.03% DDM", "value": "5.00 ± 0.4", "unit": "µM"}, {"measurement": "kcat", "setting": "[5]; pH 9, 25 mM HEPES, 0.03% DDM", "value": 1.25, "unit": "s⁻¹"}, {"measurement": "Km", "setting": "[6]; pH 9, 25 mM HEPES, 0.03% DDM", "value": "5.33 ± 0.6", "unit": "µM"}, {"measurement": "kcat", "setting": "[6]; pH 9, 25 mM HEPES, 0.03% DDM", "value": 0.87, "unit": "s⁻¹"}, {"measurement": "Km", "setting": "[7]; pH 9, 25 mM HEPES, 0.03% DDM", "value": "5.60 ± 0.6", "unit": "µM"}, {"measurement": "kcat", "setting": "[7]; pH 9, 25 mM HEPES, 0.03% DDM", "value": 0.79, "unit": "s⁻¹"}, {"measurement": "Km", "setting": "[8]; pH 9, 25 mM HEPES, 0.03% DDM", "value": "13.9 ± 3.6", "unit": "µM"}, {"measurement": "kcat", "setting": "[8]; pH 9, 25 mM HEPES, 0.03% DDM", "value": 0.86, "unit": "s⁻¹"}, {"measurement": "Km", "setting": "[9]; pH 9, 25 mM HEPES, 0.03% DDM", "value": "25.9 ± 7.0", "unit": "µM"}, {"measurement": "kcat", "setting": "[9]; pH 9, 25 mM HEPES, 0.03% DDM", "value": 0.51, "unit": "s⁻¹"}, {"measurement": "Km", "setting": "[10]; pH 9, 25 mM HEPES, 0.03% DDM", "value": "10.2 ± 2.5", "unit": "µM"}, {"measurement": "kcat", "setting": "[10]; pH 9, 25 mM HEPES, 0.03% DDM", "value": 0.33, "unit": "s⁻¹"}]}
{"molecule": "B3", "values": [{"measurement": "stoichiometry N", "setting": "[11]", "value": 2}]}
